From US20190381086

Molecular target: Ubc12^N8 made with wild type Ubc12 (thioester-linked to NEDD8), purified, P61081
Sequence (P61081 whole entry, looked up): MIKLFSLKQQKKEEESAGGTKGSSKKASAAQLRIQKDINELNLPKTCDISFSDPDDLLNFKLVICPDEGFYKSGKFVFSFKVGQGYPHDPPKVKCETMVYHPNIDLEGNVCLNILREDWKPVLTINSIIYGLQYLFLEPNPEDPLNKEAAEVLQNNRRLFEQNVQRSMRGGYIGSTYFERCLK

B1: full-length human GlyRS (protein)
chain: MDGAGAEEVLAPLRLAVRQQGDLVRKLKEDKAPQVDVDKAVAELKARKRVLEAKELALQPKDDIVDRAKMEDTLKRRFFYDQAFAIYGGVSGLYDFGPVGCALKNNIIQTWRQHFIQEEQILEIDCTMLTPEPVLKTSGHVDKFADFMVKDVKNGECFRADHLLKAHLQKLMSDKKCSVEKKSEMESVLAQLDNYGQQELADLFVNYNVKSPITGNDLSPPVSFNLMFKTFIGPGGNMPGYLRPETAQGIFLNFKRLLEFNQGKLPFAAAQIGNSFRNEISPRSGLIRVREFTMAEIEHFVDPSEKDHPKFQNVADLHLYLYSAKAQVSGQSARKMRLGDAVEQGVINNTVLGYFIGRIYLYLTKVGISPDKLRFRQHMENEMAHYACDCWDAESKTSYGWIEIVGCADRSCYDLSCHARATKVPLVAEKPLKEPKTVNVVQFEPSKGAIGKAYKKDAKLVMEYLAICDECYITEMEMLLNEKGEFTIETEGKTFQLTKDMINVKRFQKTLYVEEVVPNVIEPSFGLGRIMYTVFEHTFHVREGDEQRTFFSFPAVVAPFKCSVLPLSQNQEFMPFVKELSEALTRHGVSHKVDDSSGSIGRRYARTDEIGVAFGVTIDFDTVNKTPHTATLRDRDSMRQIRAEISELPSIVQDLANGNITWADVEARYPLFEGQETGKKETIEE
Question: How did the “stability (half-life) of Ubc12^N8 in vitro at 37°, SDS-PAGE” value turn out when B1 was run?
Answer: In the presence of GlyRS, but not BSA, Ubc12^N8 was significantly more stable than in the absence of GlyRS
